Key:
CD44-HABD [1] = biological target: CD44-HABD (UniProt P16070); experiment: filter binding; conditions: monothioate backbone, Filter binding: 1 nM biotinylated XA, 20 mM Tris pH 8.0, 150 mM NaCl, 40 min, room temperature, cell binding at room temperature, 30-60 min
CD44-HABD [2] = biological target: CD44-HABD (UniProt P16070 20-178); experiment: filter binding; Filter binding: 1 nM biotinylated XA, 20 mM Tris pH 8.0, 150 mM NaCl, 40 min, room temperature; cell binding at room temperature, 30-60 min; conditions: protein: recombinant; label: biotin
CD44-HABD (UniProt P16070 20-178), sequence (P16070 20-178): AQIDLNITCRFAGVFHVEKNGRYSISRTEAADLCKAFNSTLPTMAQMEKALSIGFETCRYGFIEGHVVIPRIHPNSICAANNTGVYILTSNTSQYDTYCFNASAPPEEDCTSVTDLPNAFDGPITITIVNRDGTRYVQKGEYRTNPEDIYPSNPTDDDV

CD44-HABD (UniProt P16070), sequence (P16070 20-178): as above

With “TTAAGATCTGTTAGGGAACCAAGACGACAG [XA1-ADDA]” the Kd (CD44-HABD [1]; X = T9, T11 as ADDA-conjugated amino-dU) was 78.3 nM.

With “TGCAGATACAGTAAACGTCCATAGACACAG [XA5-NH2]” the Kd (CD44-HABD [1]; X = T7, T18 as amino-dU) was 137 nM.

“TTGGGGCCTGCAAGACGTCCATAGACACAG [XA4-NH2]” showed a Kd (CD44-HABD [1]; X = T18 as amino-dU) of 137 nM.

Work on “TGCAGATACAGTAAACGTCCATAGACACAG [XA5-ADDA]” yielded a Kd (CD44-HABD [1]; X = T7, T18 as ADDA-conjugated amino-dU) of 125 nM.

With “TTGGGGCCTGCAAGACGTCCATAGACACAG [XA4-ADDA]” the Kd (CD44-HABD [1]; X = T18 as ADDA-conjugated amino-dU) was 103 nM.

“TTAAGATCTGCAATGTAACCATAGACACAG [XA9-ADDA]” gave a Kd (CD44-HABD [1]; X = T14 as ADDA-conjugated amino-dU) of 77.6 nM.

“TTAAGATCTGTTAGGGAACCAAGACGACAG [XA1-NH2]” gave a Kd (CD44-HABD [1]; X = T9, T11 as 5-(aminoethyl-3-acrylimido)-dU) of 55.5 nM.

In the case of “TTAAGATCTGCAATGTAACCATAGACACAG [XA9-NH2]”, the Kd (CD44-HABD [1]; X = T14 as amino-dU) is reported as 111 nM.

B1: XA2-NH2 (XNA)
DNA: TGCAGATCTGCAAGGGAACCAAGGACACTAC
modifications: NH2 form; no X in the printed sequence, X position unknown; monothioate backbone
In the case of B1, the Kd (CD44-HABD [2]) is reported as 62.9 ± 10.3 nM.

B2: XA2-ADDA (XNA)
DNA: TGCAGATCTGCAAGGGAACCAAGGACACTAC
modifications: ADDA form; no X in the printed sequence, X position unknown; monothioate backbone
Work on B2 yielded a Kd (CD44-HABD [2]) of 109 ± 15.4 nM.
